B1: sLZIP: human small leucine-zipper protein, isoform of LZIP, 354 amino acids, no transmembrane domain; GenBank FJ263669, SEQ ID NO: 1 (protein, listed as Homo sapiens)
chain: MELELDAGDQDLLAFLLEESGDLGTAPDEAVRAPLDWALPLSEVPSDWEVDDLLCSLLSPPASLNILSSSNPCLVHHDHTYSLPRETVSMDLESESCRKEGTQMTPQHMEELAEQEIARLVLTDEEKSLLEKEGLILPETLPLTKTEEQILKRVRRKIRNKRSAQESRRKKKVYVGGLESRVLKYTAQNMELQNKVQLLEEQNLSLLDQLRKLQAMVIEISNKTSSSSMYSSDTRGSLPAEHGVLSRQLRALPSEDPYQLELPALQSEVPKDSTHQWLDGSDCVLQAPGNTSCLLHYMPQAPSAEPPLEWPFPDLFSEPLCRGPILPLQANLTRKGGWLPTGSPSVILQDRYSG
B2: N domains of sLZIP: N-terminal deletion mutant of sLZIP, residues 1-228 (protein)
chain: MELELDAGDQDLLAFLLEESGDLGTAPDEAVRAPLDWALPLSEVPSDWEVDDLLCSLLSPPASLNILSSSNPCLVHHDHTYSLPRETVSMDLESESCRKEGTQMTPQHMEELAEQEIARLVLTDEEKSLLEKEGLILPETLPLTKTEEQILKRVRRKIRNKRSAQESRRKKKVYVGGLESRVLKYTAQNMELQNKVQLLEEQNLSLLDQLRKLQAMVIEISNKTSSSS
modifications: left off: a dimerising Fc or GST

System: PPARγ2
Assay: GST pull-down / immunoprecipitation of sLZIP and PPARγ2 in transfected 293T cells
Assay type: binding
Description: 293T cells were obtained and washed with cold PBS. The cells were re-suspended in an IP lysis buffer [25 mM of Tris-HCl (pH 7.4), 150 mM of NaCl, 1 mM of EDTA, 1% NP-40 and 5% glycerol, and a protease inhibitor]. A suspension was centrifuged at 16,000×g for 20 minutes at 4° C. Supernatants were collected and incubated with 0.5 μg of appropriate antibodies and 25 μl of protein A/G-agarose or a GST Sepharose 4B bead for 24 hours at 4° C. A protein complex was centrifuged at 1,000×g with a cold IP lysis buffer for 1 minute and washed five times. The final pellet was re-suspended in 50 μl of an SDS-sample buffer containing 5% β-mercaptoethanol and heated for 10 minutes at 100° C. A protein sample was isolated in SDS-PAGE (8 to 10%) and transferred to nitrocellulose membranes. Co-precipitated proteins were detected according to western blotting using specific antibodies.
In order to examine whether the transcriptional activity of PPARγ2 is regulated by interaction with sLZIP, interaction between sLZIP and PPARγ2 was examined. For this purpose, 293T cells were transfected with GST-sLZIP and Myc-PPARγ2. Cell lysates were obtained and GST pull-down analysis was performed using a glutathione 4B bead. A protein complex was analyzed in SDS-PAGE and then immunoblotted with specific antibodies (FIG. 2A). The 293T cells were transfected with GST-PPARγ2 and Flag-sLZIP, and identified according to GST-pull-down analysis (FIG. 2B). PPARγ2 was translated in vitro by a TNT translation system (Promega). His-sLZIP proteins were expressed in BL21 cells using an IPTG-inducement system. Purified His-sLZIP proteins were subjected to His pull-down analysis. Proteins bound to the bead were analyzed in SDS-PAGE, and then immunoblotted with anti-PPARγ2 and anti-His antibodies (FIG. 2C). GFP-PPARγ2 and Flag-sLZIP constructs were expressed in C3H10T1/2 cells, and analyzed using mouse anti-Flag and Texas Red-labeled anti-mouse antibodies under a fluorescence microscope. The nucleus was stained with DAPI (FIG. 2D).
Activation of many nuclear receptors depends on a supplement of coactivators. Therefore, a domain of sLZIP necessary for binding with PPARγ2 was examined. For this purpose, 293T cells were transfected with GST-full length sLZIP (1-354), N-terminal deletion mutant sLZIP (1-228), C-terminal deletion mutant sLZIP (229-354), CC-terminal deletion mutant sLZIP (297-354) and PPARγ2. Cell lysates were obtained and GST pull-down analysis was performed using a glutathione 4B bead. A protein complex was analyzed in SDS-PAGE, and then immunoblotted with specific antibodies (FIG. 3A). 293T cells were transfected with Flag-full length PPARγ2, full length PPARγ2, N-terminal deletion mutant PPARγ2 (1-310), C-terminal deletion mutants PPARγ2 (139-505) and GST-sLZIP. Cell lysates were obtained and GST pull-down analysis was performed. A protein complex was analyzed in SDS-PAGE, and then immunoblotted with anti-GST and anti-Flag antibodies (FIG. 3B).
For this purpose, 293T cells were transfected with GST-PPARγ2 and Flag-sLZIP and were treated or not treated with 10 nM of RZD for 24 hours. Cell lysates were obtained and GST pull-down analysis (FIG. 5A) and immunoprecipitation (FIG. 5B) were performed using a glutathione 4B bead. A protein complex was analyzed in SDS-PAGE, and immunoblotted with anti-GST and anti-Flag antibodies. GST-PARγ2 and Flag-sLZIP were expressed in the 293T cells, and the cells were treated with 10 nM of RZD according to time of day. The cell lysates were GST pull-down analyzed (FIG. 5C). 293T cells were transfected with GST-HDAC3 and Flag-sLZIP, and treated or not treated with 10 nM of RZD for 24 hours. The cell lysates were GST pull-down analyzed (FIG. 5D). Flag-sLZIP was expressed in the 293T cells, and the cells were treated with 10 nM of RZD for 24 hours. Immunoprecipitation analysis of the cell lysates was performed using anti-NCoR1 antibodies. […]

| Molecule | interaction with PPARγ2 (immunoprecipitation) (293T cells expressing Flag-sLZIP and GST-PPARγ2, ligand treated) | interaction with PPARγ2 (GST pull-down) (293T cells, 10 nM RZD for 24 hours) | time dependence of interaction with PPARγ2 (GST pull-down) (293T cells, 10 nM RZD, time course) | interaction with PPARγ2 (GST pull-down) (293T cells, no ligand) | interaction with PPARγ2 (GST pull-down) (293T cells, no ligand, listed as wild type sLZIP) |
| --- | --- | --- | --- | --- | --- |
| B1 | PPARγ2 was dissociated from sLZIP | dissociated from PPARγ2 | dissociated from PPARγ2 in a time-dependent manner | PPARγ2 interacted with sLZIP | interacted with PPARγ2 |
| B2 | – | – | – | not interacted with PPARγ2 | – |
